The source of these data is publication PMC3695027, “Structural Insights into the Effector – Immunity System Tae4/Tai4 from Salmonella typhimurium” (PLoS ONE, 2013).

Like-named read-outs stand apart in the source and are kept apart here. A value given as a limit tells only on which side of the number the result lay.

The target of series [1] is Tae4-ATTO 488 (fluorescently labelled Tae4 from Salmonella typhimurium) (Salmonella typhimurium). Description: stopped-flow fluorescence kinetics; association by direct mixing: 0.1 µM Tae4-ATTO 488 with 0.3-1.5 µM Tai4; 293 K; 50 mM MES pH 6.5, 200 mM NaCl; kobs against Tai4 concentration, kon from the slope.
The target is the same in series [2]. Description: stopped-flow fluorescence kinetics; dissociation: preassembled Tae4-ATTO 488/Tai4 complex (0.1 µM wild type or 0.2 µM mutant) chased with 1 or 2 µM unlabelled Tae4; apparent dissociation rate constant; limit for the wild type from simulated traces; KD calculated as koff/kon with the kon of the direct mixing.
The target is the same in series [3]. The series is described as above. This is another data set of the same source.
Series [4] deals with the molecule itself. Description: cross-linking; glutaraldehyde, 0.25 µg/µl protein in 20 mM HEPES pH 7.5, 37°C, aliquots 0 to 60 min, Coomassie-stained SDS-PAGE.
Series [5] deals with T1, Tae4 effector protein from Salmonella typhimurium (full-length, hexahistidine-tagged) (Salmonella typhimurium, UniProt Q93IS4 1-161).
T1 chain: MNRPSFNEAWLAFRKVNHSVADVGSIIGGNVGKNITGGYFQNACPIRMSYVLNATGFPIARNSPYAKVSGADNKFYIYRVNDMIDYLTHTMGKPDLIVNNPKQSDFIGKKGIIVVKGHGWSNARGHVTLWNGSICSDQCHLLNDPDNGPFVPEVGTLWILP
The series is described as follows: ITC.

Series [6] addresses T2, Tae4 effector protein from Salmonella typhimurium (full-length, hexahistidine-tagged) (Salmonella typhimurium, UniProt Q93IS4 1-161).
T2 construct: Tae4, Salmonella typhimurium, NP_459275.1, full-length orf; Asn2 to the C-terminal Pro161 modelled in the crystal structure; The single-expression construct was cut out of the bicistronic construct (NcoI/MfeI), so the Tae4 chain is the same in both; No tag removal is described; The crystal for PDB 4J30 held the selenomethionine-substituted complex; also called type-6-secretion amidase effector 4; …
T2 sequence: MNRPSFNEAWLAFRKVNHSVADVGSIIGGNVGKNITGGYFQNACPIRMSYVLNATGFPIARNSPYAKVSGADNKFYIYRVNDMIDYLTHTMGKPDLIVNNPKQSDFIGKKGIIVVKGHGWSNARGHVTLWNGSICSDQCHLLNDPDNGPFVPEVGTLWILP
Description: ITC; 29.5 µM wild-type Tai4 titrated into 2.17 µM Tae4 in the cell; 293 K; 50 mM MES pH 6.5, 200 mM NaCl; single-site binding model. Particulars: both partners purified.

For series [7], the target named is T2, Tae4 effector protein from Salmonella …. The series is described as follows: stopped-flow fluorescence kinetics; association by intrinsic tryptophan fluorescence (excitation 280 nm): 1.8 µM unlabelled Tae4 with 2.3-9.9 µM wild-type Tai4; 50 mM MES pH 6.5, 200 mM NaCl; data not shown. To be noted: both partners purified.
Series [8] has the same target. Description: SEC-MALS; Superdex200 10/300 GL with multiangle light scattering detector; 50 mM Tris-HCl pH 8.0, 200 mM NaCl; 100 µM protein, 40 µl applied, 0.5 ml/min. Particulars: both partners purified. Background: In gel filtration, larger molecules generally elute earlier.

Broadly, the kon is a measure of how fast the partners come together. The koff is the rate constant with which the complex falls apart. One may read the stoichiometry N as a count of units in the complex or per binding partner.

In series [1], “Tai4 immunity protein from Salmonella typhimurium, wild type, periplasmic (C-terminal hexahistidine tag) (from UniProt Q8ZRL5 27-127) (natural protein)” had a kon of 2.48e+06 M⁻¹ s⁻¹. In addition, in series [2], the Kd was less than 0.28 nM and the koff was less than 0.0007 s⁻¹. Also, in series [3], the dissociation rate constant (koff) is 7e-05 to 0.0007 s⁻¹.

“Tai4(E71A_S98A) variant of the immunity protein from Salmonella typhimurium (C-terminal hexahistidine tag) (natural protein)”: the kon in series [1] was found to be 2.81e+06 M⁻¹ s⁻¹. Besides, in series [2], the Kd is 255 nM and the koff is 0.716 s⁻¹.

B1: Tai4 immunity protein from Salmonella typhimurium, wild type, periplasmic (C-terminal hexahistidine tag) (natural protein)
chain: QEALTTQYSQSELLKNWALSHCLALVYKDDVVKNDARATASAYLEYGKQSVEIYHEIDEIAKKYSGLKYNGSISSDFNTMKCIDFIHDRELNELIKRRVEK
notes: Tai4, Salmonella typhimurium, NP_459276.1; Dimer in solution (cross-linking, static light scattering); the calculated dimer mass of 25.95 kDa fits the cut, tagged protein; also called Tai4wt; wild-type Tai4
As to B1, in series [4], the “stoichiometry N” value was found to be 2. Besides, the Kd in series [5] is 1.28 nM; in series [6], less than 1 nM. The same molecule displayed a kon in series [7] of 2.57e+06 ± 233000 M⁻¹ s⁻¹.

B2: Tai4 immunity protein from Salmonella typhimurium, untagged, co-expressed with Tae4 (as in the Tae4/Tai4 complex) (natural protein)
chain: QEALTTQYSQSELLKNWALSHCLALVYKDDVVKNDARATASAYLEYGKQSVEIYHEIDEIAKKYSGLKYNGSISSDFNTMKCIDFIHDRELNELIKRRVEK
notes: Tai4, Salmonella typhimurium, NP_459276.1; Gln27 to Lys127 modelled in the crystal structure; Homodimer at the centre of the Tae4_2/Tai4_2 heterotetramer; The crystal for PDB 4J30 held the selenomethionine-substituted complex
In the case of B2, the “stoichiometry N” value in series [8] is 1 Tai4 per Tae4 (2:2).
